Results taken from patent US20240207418A1 (PROFOUNDBIO US, published 2024).
Substitutions are numbered along the chain they refer to.

B1: anti-huFOLR-1 conjugate F131-LD038 (antibody, V domains shown)
VH: EVQLLESGGGVVQPGRSLRLSCAASGFTFSSYGMHWVRQAPGKGLEWVAVISYDGSNKYYADSVKGRFTISRANSKNTLYLQMNSLRAEDTAVYYCARPRAYYGAYGSSFDYWGQGTQVTVSS
VL: EIVMTQSPSSVSASVGDRVAITCRASQGISSWLAWYQQKPGKAPKLLIYAASSLQSGVPSRFSGSGSGTDFTLTISSLQPEDFATYYCQQSYSTPLTFGGGTKVDIK
modifications: drug-linker LD038 coupled to cysteine thiols after TCEP reduction; positions not given; drug-linker LD038 (PB038; PEG unit, Val-Cit-PAB cleavable linker, exatecan) coupled by maleimide to cysteine thiols after TCEP reduction; DAR 7.6 by LC-MS; positions not given
notes: also called F131-038; PA038 conjugate of F131
B2: anti-FOLR1 antibody F131 (antibody, V domains shown)
VH: B1 VH
VL: B1 VL
notes: Tested as full-length IgG with an IgG1 Fc (HEK293 supernatant and purified; later ExpiCHO-S); also called F131 mAb; F131 Ab
B3: anti-FOLR1 antibody F138 (antibody, V domains shown)
VH: B1 VH with R72T, A73H
VL: B1 VL
notes: Tested as full-length IgG with an IgG1 Fc, expressed in HEK293 (transfection supernatant); also called clone F138

Assays:
[1] = target: T1, human FOLR3 extracellular domain linked to His tag (human, UniProt P41439 23-245, limits assumed); test: BLI, global 1:1 fit; all responses below quantification range
T1 construct: extracellular domain; BLI analyte; also called Hu-FRg; not shown: His tag

[2] = target: T2, mouse FOLR1 extracellular domain linked to His tag (mouse, UniProt P35846 25-232, limits assumed); test: BLI, Ag 31.3 nM; * below range of quantification
T2 construct: extracellular domain; BLI analyte; also called Mouse-Ag; not shown: His tag

[3] = target: T3, rat FOLR1 extracellular domain linked to His tag (rat, UniProt G3V8M6 25-232); test: BLI, Ag 31.3 nM; * below range of quantification
T3 construct: BLI analyte; also called Rat-Ag

[4] = target: T2, mouse FOLR1 extracellular domain linked …; test: BLI, Ag 15.6 nM; * below range of quantification
[5] = target: T3, rat FOLR1 extracellular domain linked …; test: BLI, Ag 15.6 nM; * below range of quantification
[6] = target: T2, mouse FOLR1 extracellular domain linked …; test: BLI, Ag 7.82 nM; * below range of quantification
[7] = target: T3, rat FOLR1 extracellular domain linked …; test: BLI, Ag 7.82 nM; * below range of quantification
[8] = target: T2, mouse FOLR1 extracellular domain linked …; test: BLI, Ag 62.5 nM; * below range of quantification
[9] = target: T3, rat FOLR1 extracellular domain linked …; test: BLI, Ag 62.5 nM; * below range of quantification
[10] = target: T3, rat FOLR1 extracellular domain linked …; test: BLI, global 1:1 fit; all responses below quantification range
[11] = target: T2, mouse FOLR1 extracellular domain linked …; test: BLI, Ag 125 nM; * below range of quantification
[12] = target: T3, rat FOLR1 extracellular domain linked …; test: BLI, Ag 125 nM; * below range of quantification
[13] = target: T4, human FOLR1 protein, His tag (ACRO-FO1-H52H1) (human, UniProt P15328 25-233); test: ELISA, supernatant diluted 25x
T4 construct: Bought recombinant protein used for panning and for coating ELISA plates; not shown: His tag
T4 sequence (P15328 25-233 limits assumed): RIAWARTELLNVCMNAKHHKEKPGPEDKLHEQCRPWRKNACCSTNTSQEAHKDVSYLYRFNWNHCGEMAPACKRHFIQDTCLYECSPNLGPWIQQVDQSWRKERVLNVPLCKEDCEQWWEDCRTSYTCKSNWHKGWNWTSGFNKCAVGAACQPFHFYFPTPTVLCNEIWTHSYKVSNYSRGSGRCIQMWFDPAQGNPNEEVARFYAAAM

T3 sequence (G3V8M6 entry or part of it limits assumed): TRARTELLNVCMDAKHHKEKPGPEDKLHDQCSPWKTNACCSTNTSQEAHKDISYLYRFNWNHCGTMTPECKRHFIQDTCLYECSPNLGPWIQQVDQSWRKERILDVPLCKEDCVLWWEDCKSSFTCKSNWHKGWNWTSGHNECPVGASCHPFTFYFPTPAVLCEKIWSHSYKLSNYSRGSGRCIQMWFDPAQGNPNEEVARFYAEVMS
T2 sequence (P35846 25-232 limits assumed): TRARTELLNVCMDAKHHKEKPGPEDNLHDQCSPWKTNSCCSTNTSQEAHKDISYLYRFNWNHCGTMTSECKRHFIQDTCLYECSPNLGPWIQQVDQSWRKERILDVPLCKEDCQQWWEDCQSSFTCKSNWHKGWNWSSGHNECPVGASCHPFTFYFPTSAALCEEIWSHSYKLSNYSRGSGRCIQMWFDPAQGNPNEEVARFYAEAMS
T1 sequence (P41439 23-245 limits assumed): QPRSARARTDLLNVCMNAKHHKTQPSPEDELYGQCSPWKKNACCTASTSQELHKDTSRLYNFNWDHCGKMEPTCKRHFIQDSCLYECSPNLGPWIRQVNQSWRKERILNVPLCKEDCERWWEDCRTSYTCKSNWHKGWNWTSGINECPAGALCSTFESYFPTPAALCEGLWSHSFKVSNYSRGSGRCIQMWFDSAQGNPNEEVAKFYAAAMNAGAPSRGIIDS

Row | Binder | Kd [1] | Response [2] | Response [3] | Response [4] | Response [5] | Response [6] | Response [7] | Response [8] | Response [9] | Kd [10] | koff [10] | kon [10] | Response [11] | Response [12] | OD450 [13]
1 | B1 | 0.0328 nM | -0.00132 | -0.00454 | -0.00324 | -0.00212 | -0.00483 | -0.00438 | -0.000242 | -0.00393 | 84.8 nM | 0.224 s⁻¹ | 2.64e+06 M⁻¹ s⁻¹ | 0.0008 | 0.0007 | –
2 | B2 | – | -0.00251 | -0.00532 | -0.0051 | -0.00395 | 0.0027 | -0.00563 | -0.00178 | -0.00606 | – | 1.03 s⁻¹ | 5490 M⁻¹ s⁻¹ | -0.000579 | -0.00477 | –
3 | B3 | – | – | – | – | – | – | – | – | – | – | – | – | – | – | 0.827 OD450
